Laboratory results as given in patent US9226899B2, “Particulate hyaluronic acid and flavonoid formulations for cellular delivery of bioactive agents” (AGENCY FOR SCIENCE, TECHNOLOGY AND RESEARCH, priority 2009, dated 2016).

How the values were obtained:
[1] = target: T1, lysozyme (Gallus gallus, UniProt P00698); assay: Fluorescence quenching studies; type: binding, chicken
T1 construct: lysozyme from chicken egg white; purchased Sigma-Aldrich; host or cells: chicken egg white (natural source)
Experimental: The fluorescence emission spectra of the HA-EGCG/lysozyme particles, HA/lysozyme mixtures, free lysozyme alone, free HA-EGCG carrier or free HA alone were measured at an excitation wavelength of 280 nm using a fluorescence spectrophotometer (Hitachi, Japan). Difference spectra between the HA-EGCG/lysozyme particles and HA-EGCG were obtained to determine the net fluorescence of lysozyme in particles of varying HA-EGCG concentrations. The same was done for HA/lysozyme mixtures.

[2] = target: T1, lysozyme; assay: Lysozyme activity assay (M. lysodeikticus turbidity); type: biochemical, chicken
Experimental: To determine the activity of lysozyme, 20 μl of sample containing either free lysozyme or HA-EGCG/lysozyme particles was added to a well of a 96-well assay plate, followed by 100 μl of M. lysodeikticus (0.15% (w/v) in PBS). The decrease in turbidity was monitored by a Tecan Infinite 200 microplate reader by measuring the absorbance of the sample at 450 nm at room temperature every 3 min for 15 min. The absorbance decay plot was fitted to a linear equation, and the slopes were used to determine iysozyme activity. Regarding the restoration of activity of lysozyme that is complexed with HA-EGCG, the following protocol was used: the HA-EGCG/lysozyme particles were first allowed to self-assemble for 10 min at room temperature, with free lysozyme diluted with PBS as a control. A constant volume of Triton-X of different concentrations was then added to each sample (to a final concentration of 0.001, 0.01 or 0.1% w/v), incubated at room temperature for a further 5 min before the lysozyme substrate, M. lysodeikticus, was added, and the absorbance monitored as described above.

[3] = test system: HCT-116 cells; assay: Cell viability studies (AlamarBlue); type: cell-based, human; conditions: delivered together with chloroquine; data not shown
Experimental: HCT-116 human colon carcinoma cells were obtained from ATCC, and cultured in McCoy's 5A medium supplemented with 10% FBS and 100 units/mL of penicillin/streptomycin.
HCT-116 cells were seeded at 10,000 cells per well in 96-well microplates with complete growth medium and left to attach for 48 h. Test reagents were prepared by first mixing the linear PEI (polyethylenimine) or chloroquine solution (fixed at 100 μM)) with Granzyme B (fixed at 2 μg/ml) for 15 min before adding HA-EGCG solution to the mixture and allow complexation to take place for 45 min. The medium in the wells was then aspirated and the cells were treated with the respective reagents for 48 h (all dilutions were made in serum-free medium). Cell viability was analyzed using AlamarBlue. Before analysis, the medium was aspirated and the cells were gently washed with PBS once before a mixture of 10 μl of alamarblue reagent with 100 μl of serum-containing medium was added to each well. The cells were incubated for 2 h and the fluorescence emission of each well was measured using a Tecan infinite Microplate Reader. The viabilities of treated cells were evaluated as a percentage of the negative control. Each data set is an average of 4 repeats.

T1 sequence (P00698 19-147): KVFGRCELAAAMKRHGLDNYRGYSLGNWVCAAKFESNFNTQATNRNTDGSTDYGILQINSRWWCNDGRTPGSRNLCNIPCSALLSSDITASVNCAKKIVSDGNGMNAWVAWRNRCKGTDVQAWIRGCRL

(−)-epigallocatechin gallate [EGCG]
quenching of intrinsic lysozyme fluorescence ([1]; EX 280 nm, concentration-dependent (FIG. 5)): can quench the intrinsic fluorescence of lysozyme | quenching of intrinsic lysozyme fluorescence at the same EGCG concentration ([1]; free EGCG vs HA-EGCG (FIG. 7)): quenches intrinsic lysozyme fluorescence to a smaller degree than HA-EGCG

free lysozyme: lysozyme from chicken egg white, model protein
apparent lysozyme activity ([2]; 0.001% w/v Triton-X, % of original activity of free lysozyme (FIG. 9b)): 140% | maximum apparent lysozyme activity (plateau) ([2]; 0.01% and 0.1% Triton-X (FIG. 9b)): about 160%

B1: Granzyme: protease secreted by cytotoxic T lymphocytes, activates caspase and induces apoptosis (protein, UniProt P04187 21-247, looked up)
Granzyme B(G,H): IIGGHEVKPHSRPYMALLSIKDQQPEAICGGFLIREDFVLTAAHCEGSIINVTLGAHNIKEQEKTQQVIPMVKCIPHPDYNPKTFSNDIMLLKLKSKAKRTRAVRPLNLPRRNVNVKPGDVCYVAGWGRMAPMGKYSNTLQEVELTVQKDRECESYFKNRYNKTNQICAGDPKTKRASFRGDSGGPLVCKKVAAGIVSYGYKDGSPPRAFTKVSSFLSWIKKTMKSS
cytotoxicity in HCT-116 cells [3]: induced cytotoxicity in HCT-116 cells
